Experimental data: US10047131B2, “Peptides and combination of peptides for use in immunotherapy against ovarian cancer and other cancers” (immatics biotechnologies GmbH, priority 2015, dated 2018)

Target: HLA-A*02:01 (Homo sapiens, UniProt P04439, D140Y/D185E/D98H/E176V/E277Q/G131W/G231S/I119V/I121R/I166T/I218V/L300P/L318F/N151K/N90K/P208A/P217A/Q86G/Q94H/R138H/R169H/T345S)
Test: MHC binding assay (UV-ligand exchange, ELISA of exchange yield)
Conditions: binding to HLA-A*02:01, UV-ligand exchange
Text: Candidate peptides for T cell based therapies according to the present invention were further tested for their MHC binding capacity (affinity). The individual peptide-MHC complexes were produced by UV-ligand exchange, where a UV-sensitive peptide is cleaved upon UV-irradiation, and exchanged with the peptide of interest as analyzed. Only peptide candidates that can effectively bind and stabilize the peptide-receptive MHC molecules prevent dissociation of the MHC complexes. To determine the yield of the exchange reaction, an ELISA was performed based on the detection of the light chain (p2m) of stabilized MHC complexes. The assay was performed as generally described in Rodenko et al. (Rodenko et al., 2006).
96 well MAXISorp plates (NUNC) were coated over night with 2 μg/ml streptavidin in PBS at room temperature, washed 4× and blocked for 1 h at 37° C. in 2% BSA containing blocking buffer. […] Peptide-MHC monomers of the UV-exchange reaction were diluted 100 fold in blocking buffer. Samples were incubated for 1h at 37° C., washed four times, incubated with 2 μg/ml HRP conjugated anti-β2m for 1h at 37° C., washed again and detected with TMB solution that is stopped with […]. Absorption was measured at 450 nm. Candidate peptides that show a high exchange yield (preferably higher than 50%, most preferred higher than 75%) are generally preferred for a generation and production of antibodies or fragments thereof, and/or T cell receptors or fragments thereof, as they show sufficient avidity to the MHC molecules and prevent dissociation of the MHC complexes.

Row | Substance | Peptide exchange (MHC class I binding score, peptide exchange yield)
1 | 245 (SMIDDLLGV; listed as Homo sapiens) [compound 245] | “+++” (≥50 = +++)
2 | 586 (KLKPGDLVGV; listed as Homo sapiens) [compound 586] | “+++” (≥50 = +++)
3 | 287 (FLNEFFLNV; listed as Homo sapiens) [compound 287] | “+++” (≥50 = +++)
4 | 40 (TLLVKVFSV; listed as Homo sapiens) [compound 40] | “+++” (≥50 = +++)
5 | 395 (ALALGGIAVV; listed as Homo sapiens) [compound 395] | “++++” (≥75% = ++++)
6 | 494 (ALQPEPIKV; listed as Homo sapiens) [compound 494] | “++” (≥20% = ++)
7 | 463 (SLVESHLSDQLTL; listed as Homo sapiens) [compound 463] | “+++” (≥50 = +++)
8 | 571 (LLLTTIPQI; listed as Homo sapiens) [compound 571] | “+++” (≥50 = +++)
9 | 577 (VMFEDGVLMRL; listed as Homo sapiens) [compound 577] | “+++” (≥50 = +++)
10 | 10 (FLATFPLAAV; listed as Homo sapiens) [compound 10] | “++++” (≥75% = ++++)
11 | 38 (FLLEDDIHVS; listed as Homo sapiens) [compound 38] | “+++” (≥50 = +++)
12 | 194 (ALPLFVITV; listed as Homo sapiens) [compound 194] | “+++” (≥50 = +++)
13 | 217 (ALIHPVSTV; listed as Homo sapiens) [compound 217] | “++” (≥20% = ++)
14 | 225 (SLLKVLPAL; listed as Homo sapiens) [compound 225] | “+++” (≥50 = +++)
15 | 306 (ALVNVQIPL; listed as Homo sapiens) [compound 306] | “+++” (≥50 = +++)
16 | 573 (ILVANAIVGV; listed as Homo sapiens) [compound 573] | “+++” (≥50 = +++)
17 | 357 (SMHDLVLQV; listed as Homo sapiens) [compound 357] | “+++” (≥50 = +++)
18 | 131 (FVPPVTVFPSL; listed as Homo sapiens) [compound 131] | “++” (≥20% = ++)
19 | 505 (SLAPGDVVRQV; listed as Homo sapiens) [compound 505] | “++” (≥20% = ++)
20 | 382 (ALQNYIKEA; listed as Homo sapiens) [compound 382] | “++” (≥20% = ++)
21 | 92 (YLIPFTGIVGL; listed as Homo sapiens) [compound 92] | “++” (≥20% = ++)

Row | Substance | Peptide exchange (MHC class I binding score, peptide exchange yield)
22 | 242 (AIAYILQGV; listed as Homo sapiens) [compound 242] | “++” (≥20% = ++)
23 | 526 (RLAEVGQYEQV; listed as Homo sapiens) [compound 526] | “++” (≥20% = ++)
24 | 173 (LLDSASAGLYL; listed as Homo sapiens) [compound 173] | “+++” (≥50 = +++)
25 | 176 (YLMEGSYNKVFL; listed as Homo sapiens) [compound 176] | “++” (≥20% = ++)
26 | 48 (ALAELYEDEV; listed as Homo sapiens) [compound 48] | “+++” (≥50 = +++)
27 | 229 (RLPGPLGTV; listed as Homo sapiens) [compound 229] | “++” (≥20% = ++)
28 | 477 (ALLPASGQIAL; listed as Homo sapiens) [compound 477] | “+++” (≥50 = +++)
29 | 42 (VLLQKIVSA; listed as Homo sapiens) [compound 42] | “+++” (≥50 = +++)
30 | 297 (VLADIELAQA; listed as Homo sapiens) [compound 297] | “+++” (≥50 = +++)
31 | 621 (VLMDRLPSLL; listed as Homo sapiens) [compound 621] | “++++” (≥75% = ++++)
32 | 70 (GLLDYPVGV; listed as Homo sapiens) [compound 70] | “+++” (≥50 = +++)
33 | 285 (QLLHVGVTV; listed as Homo sapiens) [compound 285] | “+++” (≥50 = +++)
34 | 589 (KLYPQLPAEI; listed as Homo sapiens) [compound 589] | “+++” (≥50 = +++)
35 | 543 (GLLPTPITQQASL; listed as Homo sapiens) [compound 543] | “+++” (≥50 = +++)
36 | 359 (YLLPESVDL; listed as Homo sapiens) [compound 359] | “+++” (≥50 = +++)
37 | 121 (GVVDPRAISVL; listed as Homo sapiens) [compound 121] | “++” (≥20% = ++)
38 | 289 (VLLEIEDLQV; listed as Homo sapiens) [compound 289] | “++++” (≥75% = ++++)
39 | 13 (YLMDESLNL; listed as Homo sapiens) [compound 13] | “+++” (≥50 = +++)
40 | 310 (FLVDTPLARA; listed as Homo sapiens) [compound 310] | “++++” (≥75% = ++++)
41 | 308 (SQYSGQLHEV; listed as Homo sapiens) [compound 308] | “+++” (≥50 = +++)
42 | 380 (TLIEDEIATI; listed as Homo sapiens) [compound 380] | “++” (≥20% = ++)

Row | Substance | Peptide exchange (MHC class I binding score, peptide exchange yield)
43 | 583 (ILANDGVLLAA; listed as Homo sapiens) [compound 583] | “+++” (≥50 = +++)
44 | 386 (ILFRYPLTI; listed as Homo sapiens) [compound 386] | “+++” (≥50 = +++)
45 | 187 (RQISIRGIVGV; listed as Homo sapiens) [compound 187] | “+++” (≥50 = +++)
46 | 562 (YLEELPEKLKL; listed as Homo sapiens) [compound 562] | “+++” (≥50 = +++)
47 | 59 (IMEDIILTL; listed as Homo sapiens) [compound 59] | “+++” (≥50 = +++)
48 | 441 (ALLENPKMEL; listed as Homo sapiens) [compound 441] | “+++” (≥50 = +++)
49 | 548 (ALWENPESGEL; listed as Homo sapiens) [compound 548] | “++” (≥20% = ++)
50 | 391 (YVYPQRLNFV; listed as Homo sapiens) [compound 391] | “+++” (≥50 = +++)
51 | 313 (VLFDDELLMV; listed as Homo sapiens) [compound 313] | “+++” (≥50 = +++)
52 | 498 (KLWTGGLDNTV; listed as Homo sapiens) [compound 498] | “+++” (≥50 = +++)
53 | 54 (SLLEQGKEPWMV; listed as Homo sapiens) [compound 54] | “+++” (≥50 = +++)
54 | 254 (TLLAFIMEL; listed as Homo sapiens) [compound 254] | “+++” (≥50 = +++)
55 | 230 (ILVDWLVEV; listed as Homo sapiens) [compound 230] | “+” (≥10% = +)
56 | 520 (LAVHPSGVAL; listed as Homo sapiens) [compound 520] | “+” (≥10% = +)
57 | 566 (VIADGGIQNV; listed as Homo sapiens) [compound 566] | “++” (≥20% = ++)
58 | 185 (FLIDDKGYTL; listed as Homo sapiens) [compound 185] | “++” (≥20% = ++)
59 | 426 (RLADKSVLV; listed as Homo sapiens) [compound 426] | “+++” (≥50 = +++)
60 | 166 (YLNHLEPPV; listed as Homo sapiens) [compound 166] | “+++” (≥50 = +++)
61 | 119 (FLYIGDIVSL; listed as Homo sapiens) [compound 119] | “++++” (≥75% = ++++)
